Data on three molecules can be found in paper PMC10397247.

Holding throughout (assay): two-hybrid library CCNG1;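 also: natural log of median RNA to DNA barcode read ratio; higher means stronger binding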
One assay has as its target T1, 4H2931-bN.
T1 chain: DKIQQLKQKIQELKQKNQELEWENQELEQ

In a further assay the target is T2, 4H3364-bN.
T2 chain: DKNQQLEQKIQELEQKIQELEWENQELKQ

In a further assay the target is T3, 4H3297-bN.
T3 chain: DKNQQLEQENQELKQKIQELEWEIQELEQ

The target of another assay is T4, 4H2444-bN.
T4 chain: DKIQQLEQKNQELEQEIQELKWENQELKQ

The target of a further assay is T5, 4H235-bN.
T5 chain: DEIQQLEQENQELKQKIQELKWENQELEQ

The next assay deals with T6, 4H949-bN.
T6 chain: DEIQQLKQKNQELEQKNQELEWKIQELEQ

In another assay the target is T7, 4H2585-bN.
T7 chain: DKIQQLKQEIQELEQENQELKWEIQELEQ

In a further assay the target is T8, 4H2518-bN.
T8 chain: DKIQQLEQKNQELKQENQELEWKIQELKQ

Another assay has as its target T9, 4H3381-bN.
T9 chain: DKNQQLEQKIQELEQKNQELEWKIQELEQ

A further assay addresses T10, 4H2859-bN.
T10 chain: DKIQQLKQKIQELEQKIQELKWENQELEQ

For a further assay, the target named is T11, 4H264-bN.
T11 chain: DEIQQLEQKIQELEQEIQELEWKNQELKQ

The next assay deals with T12, 4H796-bN.
T12 chain: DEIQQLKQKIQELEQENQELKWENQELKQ

A further assay deals with T13, 4H730-bN.
T13 chain: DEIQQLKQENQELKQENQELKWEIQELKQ

The target of the next assay is T14, 4H56-bN.
T14 chain: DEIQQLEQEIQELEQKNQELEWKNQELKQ

For a further assay, the target named is T15, 4H932-bN.
T15 chain: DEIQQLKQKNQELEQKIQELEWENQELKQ

The target in the next assay is T16, 4H349-bN.
T16 chain: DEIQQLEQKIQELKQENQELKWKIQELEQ

Another assay has as its target T17, 4H2760-bN.
T17 chain: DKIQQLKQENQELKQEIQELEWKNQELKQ

A further assay addresses T18, 4H3041-bN.
T18 chain: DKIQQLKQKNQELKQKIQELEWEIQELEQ

Another assay concerns the target T19, P5A-bN.
T19 chain: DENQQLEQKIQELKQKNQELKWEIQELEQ

Another assay has as its target T20, P9A-bN.
T20 chain: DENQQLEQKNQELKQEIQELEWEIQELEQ

The target in the next assay is T21, P6A-bN.
T21 chain: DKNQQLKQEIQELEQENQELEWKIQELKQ

For a further assay, the target named is T22, P7A-bN.
T22 chain: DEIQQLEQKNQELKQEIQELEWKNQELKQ

Another assay has as its target T23, P8A-bN.
T23 chain: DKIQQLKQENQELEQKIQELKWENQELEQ

B1: 4H235-bN (peptide)
chain: DEIQQLEQENQELKQKIQELKWENQELEQ
With B1, the interaction score with 4H2931-bN was -1.14; in the assay with 4H3364-bN it was 0.709; with 4H3297-bN, -0.527; with 4H2444-bN, -0.884; with 4H235-bN, 0.562; with 4H949-bN it was -0.438. Moreover, the interaction score was -0.77 with 4H2585-bN; -0.299 with 4H2518-bN; -1.48 with 4H3381-bN; 0.00948 with 4H2859-bN; -0.206 with 4H264-bN; -0.458 in the assay with 4H796-bN. For the same molecule, the interaction score is -1.94 with 4H730-bN; -0.626 with 4H56-bN; -0.682 in the assay with 4H932-bN; -0.0107 in the assay with 4H349-bN; 2.03 with 4H2760-bN; -0.319 with 4H3041-bN.

B2: P5A-bN (peptide)
chain: DENQQLEQKIQELKQKNQELKWEIQELEQ
As for B2, the interaction score with P5A-bN was -1.81; with P9A-bN, -1.14; with P6A-bN, 1.62; with P7A-bN, -1.53; with P8A-bN, -0.311.

B3: 4H2444-bN (peptide)
chain: DKIQQLEQKNQELEQEIQELKWENQELKQ
As for B3, the interaction score with 4H2931-bN was -0.103; in the assay with 4H3364-bN, -0.17; in the assay with 4H3297-bN, -0.0483; in the assay with 4H2444-bN it was 1.34; with 4H949-bN, -0.477; with 4H2585-bN it was -0.578. The interaction score with 4H2518-bN is -0.0731; in the assay with 4H3381-bN, 0.0258; in the assay with 4H2859-bN, 0.194; with 4H264-bN it was 0.471; in the assay with 4H796-bN it was -0.0985; with 4H730-bN, -0.506. Moreover, the interaction score was 0.273 with 4H56-bN; 0.018 with 4H932-bN; -0.375 in the assay with 4H349-bN; -0.126 in the assay with 4H2760-bN; 0.447 with 4H3041-bN.
